Assay [1] addresses GMPCPP-stabilized microtubules of porcine brain tubulin (porcine) (UniProt P02550).
In assay [2] the target is T1, katanin MEI-1/MEI-2 (wild type) (C. elegans) (UniProt P34808).
T1 sequence 1: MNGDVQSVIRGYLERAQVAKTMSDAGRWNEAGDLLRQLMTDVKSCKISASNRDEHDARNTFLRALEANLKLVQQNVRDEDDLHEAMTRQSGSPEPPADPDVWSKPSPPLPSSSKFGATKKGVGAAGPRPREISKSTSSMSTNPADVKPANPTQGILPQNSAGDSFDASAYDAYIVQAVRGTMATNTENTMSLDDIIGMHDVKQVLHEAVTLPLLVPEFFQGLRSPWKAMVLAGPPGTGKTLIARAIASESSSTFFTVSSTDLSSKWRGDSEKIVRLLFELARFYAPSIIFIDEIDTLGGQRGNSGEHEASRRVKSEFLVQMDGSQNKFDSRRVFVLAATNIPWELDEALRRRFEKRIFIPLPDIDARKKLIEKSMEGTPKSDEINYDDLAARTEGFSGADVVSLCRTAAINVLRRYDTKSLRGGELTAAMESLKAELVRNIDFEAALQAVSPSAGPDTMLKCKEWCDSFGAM
T1 sequence 2: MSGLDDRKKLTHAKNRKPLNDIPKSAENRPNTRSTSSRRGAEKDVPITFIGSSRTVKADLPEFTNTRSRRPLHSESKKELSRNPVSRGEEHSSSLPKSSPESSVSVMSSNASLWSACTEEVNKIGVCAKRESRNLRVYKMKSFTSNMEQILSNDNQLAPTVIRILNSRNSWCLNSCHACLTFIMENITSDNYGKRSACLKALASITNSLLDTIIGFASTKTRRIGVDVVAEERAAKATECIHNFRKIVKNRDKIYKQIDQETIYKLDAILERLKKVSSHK

Assay [3] deals with T1, katanin MEI-1/MEI-2 (wild type) (C. elegans). The source holds these as a separate data set.
Assay [4] addresses katanin MEI-1/MEI-2 mutant Glu308 to alanine (C. elegans) (UniProt P34808).
Assay [5] has as its target katanin MEI-1/MEI-2 mutant W266A (C. elegans) (UniProt P34808).
Assay [6] deals with taxol-stabilized brain microtubules (UniProt P02550).
Assay [7] has as its target GMPCPP-stabilized microtubules of porcine brain tubulin (porcine) (UniProt P02550). This is another data set of the same source.
Assay [8] deals with katanin MEI-1/MEI-2 mutant K265A (C. elegans) (UniProt P34808).
Assay [9] concerns the target katanin MEI-1/MEI-2 mutant R267A (C. elegans) (UniProt P34808).
The target of assay [10] is taxol-stabilized brain microtubules (UniProt P02550). This is another data set of the same source.

Positions count from the first letter of the chain named. Numbers in names are those of the source. Where two headings read alike, the source gives them in different places.

On to “Drosophila melanogaster spastin with Arg159Arg160Arg166Arg172Arg174 mutated to alanine (enzyme)”, for which the microtubule severing activity of spastin at 20 nM, reduction against wild type in assay [1] worked out at 70%. Same read-out and setting: next, “Drosophila melanogaster spastin mutated in the N-terminal positively-charged cluster Arg110Lys111Lys117Arg118 (enzyme)”: 50%. βV-tail (peptide): the stimulation of katanin ATPase by the tail, weaker than βI and βIVb by in assay [2] turned out to be 30%. Consider DATAEEEGEFEEEAEEEVA [βIVb-tubulin tail peptide], for which the maximal stimulation of katanin ATPase by the tail peptide (2 to 600 μM) in assay [3] turned out to be 3.5 fold.

B1: katanin MEI-1/MEI-2 mutant Glu308 to alanine (complex)
chain 1: T1 sequence 1 with E308A
chain 2: T1 sequence 2
B1 yielded a basal ATPase, reduction against wild type in assay [4] of 87%.

B2: katanin MEI-1/MEI-2 mutant W266A (complex)
chain 1: T1 sequence 1 with W266A
chain 2: T1 sequence 2
In the case of B2, in [5], the basal ATPase, reduced (so in the source) was 59%. Moreover, in [6], the microtubule stimulated ATPase, reduced (so in the source) is 64%.

B3: katanin MEI-1/MEI-2 Arg128Arg130Lys134Ala triple mutant (complex)
chain 1: T1 sequence 1 with R128A, R130A, K134A
chain 2: T1 sequence 2
In assay [7], B3 returned a microtubule severing activity, reduction against wild type of 32% and a tubulin extraction (nanodamage) activity, reduction against wild type of 51%.

B4: katanin MEI-1/MEI-2 mutant K265A (complex)
chain 1: T1 sequence 1 with K265A
chain 2: T1 sequence 2
Molecule B4 displayed a microtubule stimulated ATPase, reduced (so in the source) in assay [6] of 58%. The molecule also displayed a basal ATPase, reduced (so in the source) in assay [8] of 42%.

B5: katanin MEI-1/MEI-2 mutant R267A (complex)
chain 1: T1 sequence 1 with R267A
chain 2: T1 sequence 2
B5 gave a microtubule stimulated ATPase, reduction against wild type in assay [6] of 60%. Further, in assay [9], the basal ATPase, reduction against wild type is 51%.

B6: katanin MEI-1/MEI-2 mutant K119K120R128R130K134AAAAA (complex)
chain 1: T1 sequence 1 with K119A, K120A, R128A, R130A, K134A
chain 2: T1 sequence 2
Consider B6, for which the microtubule stimulated ATPase, reduction against wild type in assay [10] worked out at 50%. Take VDSVEGEGEEEGEEY [α-tubulin tail peptide]: the maximal stimulation of katanin ATPase by the tail peptide (2 to 600 μM) in assay [3] was 2.2 fold. Take DATAEEEEDFGEEAEEEA [βI-tubulin tail peptide]: in assay [3], the maximal stimulation of katanin ATPase by the tail peptide (2 to 600 μM) turned out to be 3.5 fold.

The values are drawn from article PMC7060837.
